Results from patent US8058396B2, “Cystatin C as an antagonist of TGF-β and methods related thereto” (National Jewish Health, priority 2003, dated 2011).

B1: CystC: full-length human Cystatin C (SEQ ID NO:2), C-terminally Myc- and (His)6-tagged, retrovirally expressed and secreted by the cells (protein, listed as Homo sapiens)
chain: MAGPLRAPLLLLAILAVALAVSPAAGSSPGKPPRLVGGPMDASVEEEGVRRALDFAVGEYNKASNDMYHSRALQVVRARKQIVAGVNYFLDVELGRTTCTKTQPNLDNCPFHDQPHLKRKAFCSFQIYAVPWQGTMTLSKSTCQDA
modifications: C-terminal Myc and His6 tags
B2: Δ14CystC: human CystC with deletion of positions 80 to 93 (conserved cysteine proteinase inhibitor motif), retrovirally expressed and secreted (protein)
chain: MAGPLRAPLLLLAILAVALAVSPAAGSSPGKPPRLVGGPMDASVEEEGVRRALDFAVGEYNKASNDMYHSRALQVVRARLGRTTCTKTQPNLDNCPFHDQPHLKRKAFCSFQIYAVPWQGTMTLSKSTCQDA
modifications: left off: small tags and cut ends

Experiments:
TGF-β signaling = assay: p3TP-luciferase reporter gene assay in HT1080 cells; format: cell-based, human; settings: expression in HT1080 cells; TGF-β1 0-5 ng/ml
Description: Analysis of luciferase activity driven by the synthetic p3TP reporter ((26); generously provided by Dr. Joan Massague, Sloan Kettering) was performed as described previously (42). Briefly, control, CystC-, or Δ14CystC-expressing 3T3-L1 or HT1080 cells were cultured onto 24-well plates at a density of 45,000 cells/well and allowed to adhere overnight. The cells were transiently transfected the following morning by overnight exposure to LT1 liposomes (Mirus) containing 300 ng/well p3TP-luciferase and 100 ng/well of pCMV-β-gal. Afterward, the cells were washed twice with PBS and stimulated overnight in serum-free media with increasing concentrations of TGF-β1 as indicated. The following morning, luciferase and β-gal activities contained in detergent-solubilized cell extracts were determined.
The inventor therefore hypothesized that CystC expression might impact TGF-β signaling via a cathepsin B-dependent mechanism. To test this hypothesis, changes in luciferase expression driven by the synthetic p3TP-luciferase reporter gene (26) were measured in control- and CystC-expressing HT1080 cells. Briefly, GFP-, CystC-, or Δ14CystC-expressing HT0180 cells were transiently transfected with p3TP-luciferase and pCMV-β-gal. The transfectants were stimulated with increasing concentrations of TGF-β1 (0-5 ng/ml) as indicated, and subsequently processed to measure luciferase and β-gal activities. […]

NRK kidney fibroblasts = assay: Soft agar assay, anchorage-independent growth of NRK cells; format: cell-based, rat; settings: retroviral-mediated expression in NRK cells; TGF-β1 5 ng/ml; 7 d
Description: The growth of NRK cells in soft agar was performed according to the procedures described in (Moustakas et al., 1999). Briefly, duplicate cultures of control-, CystC-, or Δ14CystC-expressing NRK cells (10,000 cells/plate) were grown in 0.3% agar on a cushion of 0.6% agar in 35-mm plates. NRK cell growth in the absence or presence of TGF-β1 (5 ng/ml) was allowed to proceed for 7 d, whereupon the number of colonies formed was quantified under a light microscope.
This hypothesis was tested by infecting NRK cells with bicistronic retrovirus encoding either CystC or Δ14CystC to determine their effects on NRK anchorage-independent growth stimulated by TGF-β. Briefly, rat NRK kidney fibroblasts were infected with control (i.e., pMSCV-IRES-GFP), CystC, or Δ14CystC retroviral supernatants, and the resulting infected cells were isolated by GFP fluorescence on a MoFlo cell sorter 48 hours later. Control, CystC-, and Δ14CystC-expressing NRK cells were cultured in soft-agar in the absence or presence of TGF-β1 (5 ng/ml) for 7 d, whereupon NRK colony formation was quantified by light microscopy. In addition, control, CystC-, and Δ14CystC-expressing NRK cells were allowed to invade through Matrigel matrices in the absence or presence of TGF-β1 (5 ng/ml) for 48 hours.

3T3-L1 fibroblasts = assay: 3T3-L1 cell invasion through Matrigel matrices; format: cell-based, murine; settings: retroviral expression in 3T3-L1 cells, 48 hr; for serum-stimulated (tonic) 3T3-L1 cell invasion: relative to GFP-expressing cells; for TGF-β1-stimulated 3T3-L1 cell invasion: TGF-β1 5 ng/ml, p<0.05
Description: The effect CystC and D14CystC on the invasion of HT1080 and 3T3-L1 cells was determined as described previously (42). Briefly, upper chambers were coated with 100 μl of diluted Matrigel (1:50 in serum-free media), which was allowed to evaporate to dryness overnight at room temperature. The following morning the Matrigel mixtures were rehydrated and subsequently cultured with control-, CystC-, or D14CystC-expressing HT1080 or 3T3-L1 cells at a density of 100,000 cells/chamber. Cellular invasion was stimulated by addition of 2% serum to the lower chambers. Forty-eight hr later, the cells were washed twice in ice-cold PBS and immediately fixed for 15 min with 95% ethanol. Cells remaining in the upper chambers were removed with a cotton swab, whereas those remaining in the lower chamber were stained with crystal violet. Quantifying invading cells was determined through two independent measures, which yielded identical results: (i) manual counting under a light microscope, and (ii) crystal violet dye extraction by incubation of the membranes in 10% acetic acid, followed by spectrophotometry at 590 nm.
In some experiments, the effects of recombinant CystC and D14CystC on 3T3-L1 cell invasion was examined. To do so, 3T3-L1 cells (100,000 cells/chamber) were allowed to invade through Matrigel […], together with or without 5 ng/ml of TGF-β1. All subsequent procedures were performed as described above.
GFP-, CystC-, or Δ14CystC-expressing 3T3-L1 cells were allowed to invade through Matrigel-coated filters in the absence or presence of TGF-β1 (5 ng/ml) for 48 hr, and the results are shown in FIG. 2A. […] Data are the mean (±SE) of four independent experiments presented as the percent invasion relative to GFP-expressing 3T3-L1 cells.
Moreover, the inhibitory effects of CystC on 3T3-L1 cell invasion could be recapitulated by addition of recombinant CystC fusion proteins. Control or TGF-β1-stimulated (5 ng/ml) 3T3-L1 cells were allowed to invade through Matrigel-coated filters for 48 hr in the absence or presence of recombinant (10 mg/ml) GST, GST-CystC, or GST-D14CystC as indicated in FIG. 2B. […] Data are the mean (±SE) of three independent experiments presented as the percent invasion relative to untreated 3T3-L1 cells. […] Collectively, these findings indicate that 3T3-L1 cell invasion proceeds through cathepsin B-dependent and TGF-β-dependent pathways.

Molecule	TGF-β-stimulated luciferase activity driven by the p3TP promoter (TGF-β signaling)	morphological transformation (soft agar colony formation) stimulated by TGF-β (NRK kidney fibroblasts)	serum-stimulated (tonic) 3T3-L1 cell invasion (3T3-L1 fibroblasts)	TGF-β1-stimulated 3T3-L1 cell invasion (3T3-L1 fibroblasts)
B1	significantly inhibited	completely prevented	inhibited significantly	significantly inhibited
B2	equally effective as CystC	completely prevented	unaffected	significantly inhibited
